Biological target: T1, NXF1(RRM-LRR) (UniProt Q9UBU9 96-362)
T1 sequence: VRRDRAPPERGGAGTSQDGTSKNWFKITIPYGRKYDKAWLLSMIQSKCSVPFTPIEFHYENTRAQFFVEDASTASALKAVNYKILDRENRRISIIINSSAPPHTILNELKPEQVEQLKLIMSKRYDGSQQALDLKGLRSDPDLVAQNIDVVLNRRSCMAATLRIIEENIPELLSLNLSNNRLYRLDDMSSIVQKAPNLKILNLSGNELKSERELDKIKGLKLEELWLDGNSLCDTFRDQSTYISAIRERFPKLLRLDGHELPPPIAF
Test: EMSA; in presence of GST-Nsp1(1-129); RNA binding of NXF1 not impaired; 10 mM Tris pH 8.0, 100 mM NaCl, 0.5 mM TCEP, 8% glycerol, 0.5 U/ul SUPERase-In, room temperature 10 min; 5% native PAGE; 100 nM RNA
Details: protein: recombinant; tags: GST tag removed by TEV; label: 5' Alexa Fluor 488; single strand

Binder: UUUUUUUUUUUUUUU (ssRNA) [poly(U) 15-mer RNA]
- binding result: binds

Source: article PMC7864571
